Assays:
[1] = biological target: T1, GH1 β-glucosidase from Spodoptera frugiperda (Sfβgly), wild-type (Spodoptera frugiperda); experiment: SEC; dimer to monomers; 100 mM phosphate buffer pH 6 (P100), 5 °C; two Superdex 200 HR10/300 GL columns in tandem; KD is the slope of [M]^2 versus [D] from peak areas at several protein concentrations; details: both partners purified
[2] = biological target: T1, GH1 β-glucosidase from Spodoptera …; experiment: SEC-MALS; 90 μM Sfβgly in 100 mM sodium phosphate buffer pH 6 (P100) at 5 °C; two Superdex 200 columns in tandem; details: both partners purified
[3] = biological target: T1, GH1 β-glucosidase from Spodoptera …; experiment: SEC; dimer to monomers; 100 mM phosphate buffer pH 6 (P100), 5 °C; two Superdex 200 HR10/300 GL columns in tandem; KD is the slope of [M]^2 versus [D] from peak areas at several protein concentrations; details: both partners purified; remark: listed apart in the source
[4] = biological target: T1, GH1 β-glucosidase from Spodoptera …; experiment: SEC; dimer to monomers; 50 mM phosphate buffer pH 6 (P50), 5 °C; KD is the slope of [M]^2 versus [D] from peak areas; details: both partners purified
[5] = biological target: T1, GH1 β-glucosidase from Spodoptera …; experiment: SEC; dimer to monomers; 75 mM phosphate buffer pH 6 (P75), 5 °C; KD is the slope of [M]^2 versus [D] from peak areas; details: both partners purified
[6] = biological target: T1, GH1 β-glucosidase from Spodoptera …; experiment: SEC; dimer to monomers; 5 mM phosphate buffer pH 6 (P5), 5 °C; KD is the slope of [M]^2 versus [D] from peak areas; details: both partners purified
[7] = biological target: T1, GH1 β-glucosidase from Spodoptera …; experiment: SEC; dimer to monomers; 25 mM phosphate buffer pH 6 (P25), 5 °C; KD is the slope of [M]^2 versus [D] from peak areas; details: both partners purified
[8] = biological target: the molecule itself; experiment: SEC; dimer to monomers; 100 mM phosphate buffer pH 6 (P100), 5 °C; two Superdex 200 HR10/300 GL columns in tandem; KD is the slope of [M]^2 versus [D] from peak areas at several protein concentrations

B1: GH1 β-glucosidase from Spodoptera frugiperda (Sfβgly), wild-type (enzyme)
chain: QQRRFPDDFLFGTATASYQIEGAWDEDGKGENIWDYMVHNTPEVIRDLSNGDIAADSYHNYKRDVEMMRELGLDAYRFSLSWARILPTGMANEVNPAGIAFYNNYIDEMLKYNITPLITLYHWDLPQKLQELGGFANPLISDWFEDYARVVFENFGDRVKMFITFNEPREICFEGYGSATKAPILNATAMGAYLCAKNLVTAHAKAYYLYDREFRPVQGGQCGITISVNWFGPATPTPEDEMAAELRRQGEWGIYAHPIFSAEGGFPKELSDKIAEKSAQQGYPWSRLPEFTEEEKAFVRGTSDFFGVNHYTAFLVSATERKGPYPVPSLLDDVDTGSWADDSWLKSASAWLTLAPNSIHTALTHLNNLYNKPVFYITENGWSTDESRENSLIDDDRIQYYRASMESLLNCLDDGINLKGYMAWSLMDNFEWMEGYIERFGLYEVDFSDPARTRTPRKAAFVYKHIIKHRVVDYEYEPETMVMTIDEGH
modifications: Monomer given, self-associates to a C2 homodimer. Limits by convention from the 5CG0 entity; paper numbering = entity + 20 (precursor numbering) / Monomer given, self-associates to a C2 homodimer. …
With B1 the Kd [1] was 8 µM, the “stoichiometry N” value [2] was 2 and the Kd [3] was 7 µM. The Kd [4] was 9.5 µM, the Kd [5] was 9.9 µM and the Kd [6] was 135 µM. For the same binder, the Kd [7] was 78 µM.

B2: Sfβgly mutant M210A (enzyme)
chain: QQRRFPDDFLFGTATASYQIEGAWDEDGKGENIWDYMVHNTPEVIRDLSNGDIAADSYHNYKRDVEMMRELGLDAYRFSLSWARILPTGMANEVNPAGIAFYNNYIDEMLKYNITPLITLYHWDLPQKLQELGGFANPLISDWFEDYARVVFENFGDRVKMFITFNEPREICFEGYGSATKAPILNATAAGAYLCAKNLVTAHAKAYYLYDREFRPVQGGQCGITISVNWFGPATPTPEDEMAAELRRQGEWGIYAHPIFSAEGGFPKELSDKIAEKSAQQGYPWSRLPEFTEEEKAFVRGTSDFFGVNHYTAFLVSATERKGPYPVPSLLDDVDTGSWADDSWLKSASAWLTLAPNSIHTALTHLNNLYNKPVFYITENGWSTDESRENSLIDDDRIQYYRASMESLLNCLDDGINLKGYMAWSLMDNFEWMEGYIERFGLYEVDFSDPARTRTPRKAAFVYKHIIKHRVVDYEYEPETMVMTIDEGH
B2 showed a Kd [8] of 3600 µM.

B3: Sfβgly mutant N112S (enzyme)
chain: QQRRFPDDFLFGTATASYQIEGAWDEDGKGENIWDYMVHNTPEVIRDLSNGDIAADSYHNYKRDVEMMRELGLDAYRFSLSWARILPTGMASEVNPAGIAFYNNYIDEMLKYNITPLITLYHWDLPQKLQELGGFANPLISDWFEDYARVVFENFGDRVKMFITFNEPREICFEGYGSATKAPILNATAMGAYLCAKNLVTAHAKAYYLYDREFRPVQGGQCGITISVNWFGPATPTPEDEMAAELRRQGEWGIYAHPIFSAEGGFPKELSDKIAEKSAQQGYPWSRLPEFTEEEKAFVRGTSDFFGVNHYTAFLVSATERKGPYPVPSLLDDVDTGSWADDSWLKSASAWLTLAPNSIHTALTHLNNLYNKPVFYITENGWSTDESRENSLIDDDRIQYYRASMESLLNCLDDGINLKGYMAWSLMDNFEWMEGYIERFGLYEVDFSDPARTRTPRKAAFVYKHIIKHRVVDYEYEPETMVMTIDEGH
Work on B3 yielded a Kd [8] of 1200 µM.

B4: Sfβgly mutant D166S (enzyme)
chain: QQRRFPDDFLFGTATASYQIEGAWDEDGKGENIWDYMVHNTPEVIRDLSNGDIAADSYHNYKRDVEMMRELGLDAYRFSLSWARILPTGMANEVNPAGIAFYNNYIDEMLKYNITPLITLYHWDLPQKLQELGGFANPLISDWFESYARVVFENFGDRVKMFITFNEPREICFEGYGSATKAPILNATAMGAYLCAKNLVTAHAKAYYLYDREFRPVQGGQCGITISVNWFGPATPTPEDEMAAELRRQGEWGIYAHPIFSAEGGFPKELSDKIAEKSAQQGYPWSRLPEFTEEEKAFVRGTSDFFGVNHYTAFLVSATERKGPYPVPSLLDDVDTGSWADDSWLKSASAWLTLAPNSIHTALTHLNNLYNKPVFYITENGWSTDESRENSLIDDDRIQYYRASMESLLNCLDDGINLKGYMAWSLMDNFEWMEGYIERFGLYEVDFSDPARTRTPRKAAFVYKHIIKHRVVDYEYEPETMVMTIDEGH
B4 was tested, and the Kd [8] was 100 µM.

B5: Sfβgly mutant L214A (enzyme)
chain: QQRRFPDDFLFGTATASYQIEGAWDEDGKGENIWDYMVHNTPEVIRDLSNGDIAADSYHNYKRDVEMMRELGLDAYRFSLSWARILPTGMANEVNPAGIAFYNNYIDEMLKYNITPLITLYHWDLPQKLQELGGFANPLISDWFEDYARVVFENFGDRVKMFITFNEPREICFEGYGSATKAPILNATAMGAYACAKNLVTAHAKAYYLYDREFRPVQGGQCGITISVNWFGPATPTPEDEMAAELRRQGEWGIYAHPIFSAEGGFPKELSDKIAEKSAQQGYPWSRLPEFTEEEKAFVRGTSDFFGVNHYTAFLVSATERKGPYPVPSLLDDVDTGSWADDSWLKSASAWLTLAPNSIHTALTHLNNLYNKPVFYITENGWSTDESRENSLIDDDRIQYYRASMESLLNCLDDGINLKGYMAWSLMDNFEWMEGYIERFGLYEVDFSDPARTRTPRKAAFVYKHIIKHRVVDYEYEPETMVMTIDEGH
B5 gave a Kd [8] of 5400 µM.

B6: Sfβgly mutant N157S (enzyme)
chain: QQRRFPDDFLFGTATASYQIEGAWDEDGKGENIWDYMVHNTPEVIRDLSNGDIAADSYHNYKRDVEMMRELGLDAYRFSLSWARILPTGMANEVNPAGIAFYNNYIDEMLKYNITPLITLYHWDLPQKLQELGGFASPLISDWFEDYARVVFENFGDRVKMFITFNEPREICFEGYGSATKAPILNATAMGAYLCAKNLVTAHAKAYYLYDREFRPVQGGQCGITISVNWFGPATPTPEDEMAAELRRQGEWGIYAHPIFSAEGGFPKELSDKIAEKSAQQGYPWSRLPEFTEEEKAFVRGTSDFFGVNHYTAFLVSATERKGPYPVPSLLDDVDTGSWADDSWLKSASAWLTLAPNSIHTALTHLNNLYNKPVFYITENGWSTDESRENSLIDDDRIQYYRASMESLLNCLDDGINLKGYMAWSLMDNFEWMEGYIERFGLYEVDFSDPARTRTPRKAAFVYKHIIKHRVVDYEYEPETMVMTIDEGH
B6 gave a Kd [8] of 28 µM.

Source: article PMC12368724, “Impact of Changes in Buffer Ionic Concentration and Mutations on a GH1 β‑Glucosidase Homodimer” (ACS Omega, 2025)
